# Results taken from PMC12305242, “Native Top–Down Analysis of Membrane Protein Complexes Directly From In Vitro and Native Membranes” (Molecular & Cellular Proteomics : MCP, 2025).
# T1: dihydrolipoyl dehydrogenase (DLDH) (Escherichia coli, UniProt P0A9P0)
# T1 construct: gene lpdA; endogenous, untagged, ejected from native E. coli BL21 membrane vesicles
# T1 sequence (P0A9P0 2-474): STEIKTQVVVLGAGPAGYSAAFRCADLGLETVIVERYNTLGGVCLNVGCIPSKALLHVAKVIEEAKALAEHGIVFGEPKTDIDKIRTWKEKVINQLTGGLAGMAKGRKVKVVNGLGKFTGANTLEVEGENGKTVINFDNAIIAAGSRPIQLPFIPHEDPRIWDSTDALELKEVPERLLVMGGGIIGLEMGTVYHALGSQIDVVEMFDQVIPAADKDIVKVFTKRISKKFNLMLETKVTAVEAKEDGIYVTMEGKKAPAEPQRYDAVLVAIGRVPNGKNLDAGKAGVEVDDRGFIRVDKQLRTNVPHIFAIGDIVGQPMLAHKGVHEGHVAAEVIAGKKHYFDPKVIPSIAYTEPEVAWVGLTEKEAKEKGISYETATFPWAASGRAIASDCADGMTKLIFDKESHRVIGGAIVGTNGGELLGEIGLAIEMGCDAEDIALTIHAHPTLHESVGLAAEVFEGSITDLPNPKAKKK
# T2: AqpZ, P60844
# T2 chain: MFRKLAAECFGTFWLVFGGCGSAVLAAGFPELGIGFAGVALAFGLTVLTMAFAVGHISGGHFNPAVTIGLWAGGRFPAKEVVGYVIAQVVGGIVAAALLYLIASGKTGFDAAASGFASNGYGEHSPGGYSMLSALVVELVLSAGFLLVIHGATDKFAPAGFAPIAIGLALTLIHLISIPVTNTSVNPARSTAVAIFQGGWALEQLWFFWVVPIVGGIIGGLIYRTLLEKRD
# What was measured:
# [1] = target: T3, β-barrel–assembly machinery (BAM) complex (Escherichia coli, UniProt P0A940); experiment: native MS of membrane vesicles, complex-up (HCD) of bound species; type: binding; details: 100 uM MRL-494, 1 h on ice, native E. coli membrane vesicles; bound to the complex, subunit not resolved
# T3 construct: gene bamA; endogenous, untagged heteropentamer BAM-ABCDE, lipidated proteoforms, about 199 kDa, ejected from native E. coli BL21 membrane vesicles; with Outer membrane protein assembly factor BamB; Outer membrane protein assembly factor BamC; Outer membrane protein assembly factor BamD; Outer membrane protein assembly factor BamE
# [2] = target: T1, dihydrolipoyl dehydrogenase (DLDH); experiment: native MS complex-up (HCD), mass shift of ejected monomer; type: binding; details: endogenous ligand, native E. coli membrane vesicles; ligand identified by added mass and database search
# [3] = target: the molecule itself; experiment: native MS; endogenous complexes ejected from E. coli BL21 native membrane vesicles (500 mM NH4Ac, 300 ug/ml protein, 5% (v/v) glycerol as supercharger), in-source activation; quadrupole isolation and complex-up analysis by HCD/CID; no detergent
# [4] = target: T2, AqpZ, P60844; experiment: native MS; purified protein reconstituted into proteoliposomes (E. coli Polar Lipid Extract, 200 mM NH4Ac), 0.1% (v/v) 3-nitrobenzyl alcohol as supercharger, ejected by in-source activation; protein 2 to 10 uM; Q Exactive UHMR; details: remark: other sources report otherwise
# [5] = target: the molecule itself; experiment: as above
molecule,measurement,setting,value
NC(N)=NC(=O)CC(Nc1nc(N=C(N)N)nc(NC2CCC(NC(=O)Cn3nnc(-c4ccc(F)cc4)n3)CC2)n1)C1CC1 (centres unmarked) [MRL-494],"native MS of membrane vesicles, complex-up (HCD) of bound species",[1],The results provide direct evidence for MRL-494 BAM complex interaction
Cc1cc2nc3c(=O)[nH]c(=O)nc-3n(C[C@H](O)[C@H](O)[C@H](O)COP(=O)(O)OP(=O)(O)OC[C@H]3O[C@@H](n4cnc5c(N)ncnc54)[C@H](O)[C@@H]3O)c2cc1C [flavin adenine dinucleotide],"native MS complex-up (HCD), mass shift of ejected monomer",[2],"identified the ligand as flavin adenine dinucleotide, an endogenous cofactor of DLDH"
"dihydrolipoyl dehydrogenase (enzyme, UniProt P0A9P0 1-474, looked up, dihydrolipoyl dehydrogenase (DLDH, gene lpdA), E. coli BL21, endogenous peripheral membrane protein; also called DLDH; lpdA; source: endogenous, E. coli BL21 membrane vesicles (N2 cavitation)) MSTEIKTQVVVLGAGPAGYSAAFRCADLGLETVIVERYNTLGGVCLNVGCIPSKALLHVAKVIEEAKALAEHGIVFGEPKTDIDKIRTWKEKVINQLTGGLAGMAKGRKVKVVNGLGKFTGANTLEVEGENGKTVINFDNAIIAAGSRPIQLPFIPHEDPRIWDSTDALELKEVPERLLVMGGGIIGLEMGTVYHALGSQIDVVEMFDQVIPAADKDIVKVFTKRISKKFNLMLETKVTAVEAKEDGIYVTMEGKKAPAEPQRYDAVLVAIGRVPNGKNLDAGKAGVEVDDRGFIRVDKQLRTNVPHIFAIGDIVGQPMLAHKGVHEGHVAAEVIAGKKHYFDPKVIPSIAYTEPEVAWVGLTEKEAKEKGISYETATFPWAASGRAIASDCADGMTKLIFDKESHRVIGGAIVGTNGGELLGEIGLAIEMGCDAEDIALTIHAHPTLHESVGLAAEVFEGSITDLPNPKAKKK",stoichiometry N,[3],2
"AqpZ, P60844 1-231 (natural protein) MFRKLAAECFGTFWLVFGGCGSAVLAAGFPELGIGFAGVALAFGLTVLTMAFAVGHISGGHFNPAVTIGLWAGGRFPAKEVVGYVIAQVVGGIVAAALLYLIASGKTGFDAAASGFASNGYGEHSPGGYSMLSALVVELVLSAGFLLVIHGATDKFAPAGFAPIAIGLALTLIHLISIPVTNTSVNPARSTAVAIFQGGWALEQLWFFWVVPIVGGIIGGLIYRTLLEKRD",stoichiometry N,[4],4
semiSWEET (natural protein) MALIERIGKALEPLMLVMGLISPLATMPQLYKLYVSHSEHALGLSLTTWLLYSFIALLWTIYGIYHKNPTIWVGNCLGFLMYVAMVVGIIAHTGGTY,stoichiometry N,[5],2
